This note sets out measurements from article PMC9076272 (RSC Advances, 2019).

The data set deals with the molecule itself. Description: crystal structure.

B1: Pseudomonas aeruginosa single-stranded DNA-binding protein (PaSSB) (natural protein, UniProt P40947 1-165, looked up)
chain: MARGVNKVILVGNVGGDPETRYMPNGNAVTNITLATSESWKDKQTGQQQERTEWHRVVFFGRLAEIAGEYLRKGSQVYVEGSLRTRKWQGQDGQDRYTTEIVVDINGNMQLLGGRPSGDDSQRAPREPMQRPQQAPQQQSRPAPQQQPAPQPAQDYDSFDDDIPF
One may read the stoichiometry N as a count of units in the complex or per binding partner. Regarding B1, the “stoichiometry N” value was 4.
